# Measurements taken from the supplement of paper PMC10567573.
# ± gives the standard deviation.
# Experiment: protein stability index of a GFP-peptide fusion (GPS, HEK-293T) (PSI 1-6); higher = more stable
# [1] = treatment: DMSO, c terminus: a fixed tail appended
# [2] = treatment: MLN4924 1 uM, 8 h, c terminus: a fixed tail appended
# 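Further: 24-mer peptide tiles fused after GFP, lentivirally expressed, FACS-sorted into six equal bins by GFP/DsRed ratio, decoded by Illumina sequencing, PSI is the read-weighted mean bin number.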
Sequence,protein stability index [1],protein stability index [2],"protein stability index (treatment: DMSO, c terminus: native)","protein stability index (treatment: MLN4924 1 uM, 8 h, c terminus: native)"
AAAALFGGKKDKARYIDTHNRVSK [PLK2],3.37 ± 0.22,3.14 ± 0.39,–,–
AACLLQLDGLIQQCGETMKETVNV [GMCL1],3.14 ± 0.24,3.07 ± 0.25,–,–
AAFPNLANLSRTQLLHLGLTQGLI [KLHDC10],2.58 ± 0.3,2.27 ± 0.2,–,–
AAGSPRSPGPLPGARGLHLPDAGS [ISL2],4.6 ± 0.35,4.72 ± 0.16,–,–
AAHAVVLCALPVHVAVEHQLPPAS [SOAT2],2.16 ± 0.32,2.52 ± 0.39,–,–
AALNAHSDCCRKLLSSGFEIDTPD [ANKRD44],3.61 ± 0.24,3.59 ± 0.42,–,–
AAMLRGQSDVGVAVFENKIYVVGG [KLHL13],2.07 ± 0.12,2.46 ± 0.55,–,–
AARALDKNKIPYKGFIPEDLEAFI [FEM1A],2.96 ± 0.29,3.42 ± 0.41,–,–
AATLLLALLSCCLTVVSFYQVAAL [TNFSF13B],3.24 ± 0.23,3.31 ± 0.32,–,–
AAWGARVFSFGKHYWELDVDNSCD [TRIM43],2.25 ± 0.44,2.28 ± 0.3,–,–
ACDSKLTFDAITTIRGEVMFFKDR [MMP1],2.45 ± 0.24,2.83 ± 0.19,–,–
ACGGGHLLPYFYIIYMAILLTHRC [DHCR7],2.8 ± 0.18,3.07 ± 0.19,–,–
ACGIVSGKYDSGIPPYSRASLKGY [KCNAB2],2.35 ± 0.21,2.2 ± 0.12,–,–
ACGSSSYVASIVDGGESRSEKGDS [RBMY1A1],5.22 ± 0.31,5.16 ± 0.35,–,–
ACIVVLDRTSHRLHTANLGDSGFL [PPTC7],2.68 ± 0.48,2.24 ± 0.43,–,–
ADLENEDIFPELDDILYHVKGMQR [DLC1],3.7 ± 0.13,3.72 ± 0.34,–,–
AEHMKRQRHPRLRPQSAQSSFPPS [AUP1],4.13 ± 0.12,4.43 ± 0.25,–,–
AEHQFSFMEKRNQWLVSQLSAASP [TRAF3IP2],3.02 ± 0.39,3.23 ± 0.37,–,–
AEKETELSLQKEQLQLKIIEIEDE [TRIM29],5.42 ± 0.26,5.45 ± 0.26,–,–
AFAEMLRFGDRMFYKDWWNSTSYS [SOAT1],2.52 ± 0.36,2.58 ± 0.54,–,–
AFEPEALGNLVEGLDFHRFYFENL [CAMK2A],2.51 ± 0.18,2.61 ± 0.3,–,–
AFWSLVTLGSSFIPGEHFWLLLLT [SPNS1],2.85 ± 1.5,2.91 ± 1.1,–,–

Sequence,protein stability index [1],protein stability index [2],"protein stability index (treatment: DMSO, c terminus: native)","protein stability index (treatment: MLN4924 1 uM, 8 h, c terminus: native)"
AGADLKERAKMSSSEVGPFVSKIR [AUH],3.21 ± 0.21,4.069 ± 0.006,–,–
AGGDATENFEDVGHSTDAREMSKT [CYB5A],5.44 ± 0.28,5.3 ± 0.15,–,–
AGIREAKAKQEKVSAQYLSEIEMA [FLOT1],4.63 ± 0.33,4.75 ± 0.14,–,–
AGLAPPSLFARAMQVLVTAISPGR [ANKRD9],2.29 ± 0.1,2.29 ± 0.18,–,–
AGPDSWGSDAEQSTSGQPYPTSDQ [LCOR],5.48 ± 0.23,5.4 ± 0.13,–,–
AIIRTPPKSPATPKQLRLINQPLP [MAP2],3.13 ± 0.19,3.15 ± 0.21,–,–
AINNLVLQGCSSIGLRLVLEYLYT [KLHL14],3.15 ± 0.55,3.04 ± 0.31,–,–
AKAELPKYKSFNRTAMPYGGYEKA [MYOZ1],3.22 ± 0.23,3.41 ± 0.24,–,–
AKEKLESFIKNSDSFDKFEFCEPA [PCMTD1],4.06 ± 0.27,3.96 ± 0.31,–,–
AKLAADDFRTKYETELSLRQLVEA [KRT36],3.73 ± 0.33,3.78 ± 0.061,–,–
AKRCTVIGGSGFLGQHMVEQLLAR [NSDHL],2.1 ± 0.2,2.21 ± 0.41,–,–
ALDLAREFLPQGPVAMRVAKLAIN [AUH],2.89 ± 0.18,2.83 ± 0.25,–,–
ALERRRRALQEEERAAAQARRELQ [ZBED3],5.18 ± 0.12,4.86 ± 0.19,–,–
ALLEGEKALWEDKTSLWEEENALW [CCDC70],3.41 ± 0.27,3.73 ± 0.33,–,–
ALSDAEFEGEGDYEEGMYADWWQE [P3H4],4.97 ± 0.23,5.15 ± 0.17,–,–
ALTGPVVDIVTGHARLSDIWAKTP [DHCR7],2.63 ± 0.21,2.71 ± 0.17,–,–
AMKITQEPQGLGYWEAWRHHCQGK [SPACA3],3.05 ± 0.18,3.17 ± 0.29,–,–
APGYDPETVTVTVGPAEPTLVNFH [CPN1],3.89 ± 0.32,3.99 ± 0.35,–,–
APLIQPCHSESGKSRLVQLPPVAV [PCMTD2],3.13 ± 0.21,3.29 ± 0.38,–,–
APPQGSCGDELPWTLQRRLTRLRT [PLEKHN1],3.33 ± 0.26,3.51 ± 0.44,–,–
APPSTRTSHSLPESSVPSTVGCSS [PLEKHN1],4.94 ± 0.45,5.23 ± 0.18,–,–
AQLRLQLEVSQLEGSLQQPKAQSA [SMG5],3.66 ± 0.24,3.7 ± 0.28,–,–

Sequence,protein stability index [1],protein stability index [2],"protein stability index (treatment: DMSO, c terminus: native)","protein stability index (treatment: MLN4924 1 uM, 8 h, c terminus: native)"
AQQLEEEGPMEEEEAQPMAAPEGK [EID1],5.68 ± 0.29,5.53 ± 0.35,–,–
AQVDGAAMFAADPKKPIGGNIIAH [RAD51],4.23 ± 0.18,4.36 ± 0.17,–,–
ARVKPPEGYDVVAVYPNAKVELV [PDLIM4],–,–,3.52 ± 0.35,3.65 ± 0.22
ARYYLVQGLIEDCQLALQQKRETL [KCTD13],2.11 ± 0.19,2.19 ± 0.24,–,–
ASDLSSEEGWRLFKIDKEYLLKMA [SAT1],2.42 ± 0.17,2.6 ± 0.33,–,–
ASEAFHWDERGRAAAYSPSEALLY [ANKRD9],3.37 ± 0.21,3.4 ± 0.4,–,–
ASLGLTQTQVKIWFQNKRSKFKKL [DLX1],2.37 ± 0.19,2.61 ± 0.47,–,–
ASSLPAEVHSLTLSPPEQAAQPMQ [PLAGL1],5.07 ± 0.12,4.89 ± 0.26,–,–
ATECEFVGSLPVIVVGRLKVALEP [LPCAT4],2.36 ± 0.56,2.36 ± 0.59,–,–
ATETQALAQRTQQDSTRTVGERLQ [TEKT4],5.14 ± 0.43,5.43 ± 0.15,–,–
ATKPSHWCSVAYWEHRTRVGRLYA [SMAD6],2.62 ± 0.55,1.91 ± 0.17,–,–
ATVPSNMMSVNGQAKTHTDSSEKE [ACBD3],5.35 ± 0.23,5.45 ± 0.19,–,–
AVETRLSLLNMTFMKYVDSNLCCF [FBXO28],2.99 ± 1.8,2.57 ± 1.3,–,–
AVGDRQDGLREQLQAPVPPDSVPS [PBXIP1],5.33 ± 0.37,5.37 ± 0.18,–,–
AVLDCLLDFLPKDVKKEKLSPDIM [TENT5D],2.99 ± 0.65,2.63 ± 0.52,–,–
CASKYGRDWERYTAAVPYRLLPGI [DHCR7],2.05 ± 0.24,2.2 ± 0.21,–,–
CEALINRVSAMRDYRGPDCRYLNF [MIA2],2.3 ± 0.33,2.53 ± 0.14,–,–
CESCVDLLFVRGAGNCPECGTPLR [MNAT1],4.27 ± 0.32,4.51 ± 0.17,–,–
CESLTYGLPFILRPTSCWQLDWDE [M1AP],2.25 ± 0.15,2.04 ± 0.3,–,–
CEVWACNLDEEMKKIRQVIRKYNY [CNOT7],2.28 ± 0.19,2.23 ± 0.14,–,–
CFVKDNPQKSYFIRLYGLQAGRLL [WAS],2.49 ± 0.58,2.22 ± 0.45,–,–
